# Like-named read-outs stand apart in the source and are kept apart here.
# T1: human ADAM 9 catalytic/disintegrin domains (human, UniProt Q13443 206-697, limits assumed)
# T1 construct: domain: catalytic/disintegrin domains; Bought; also called ADAM 9 (human)
# T1 sequence (looked up): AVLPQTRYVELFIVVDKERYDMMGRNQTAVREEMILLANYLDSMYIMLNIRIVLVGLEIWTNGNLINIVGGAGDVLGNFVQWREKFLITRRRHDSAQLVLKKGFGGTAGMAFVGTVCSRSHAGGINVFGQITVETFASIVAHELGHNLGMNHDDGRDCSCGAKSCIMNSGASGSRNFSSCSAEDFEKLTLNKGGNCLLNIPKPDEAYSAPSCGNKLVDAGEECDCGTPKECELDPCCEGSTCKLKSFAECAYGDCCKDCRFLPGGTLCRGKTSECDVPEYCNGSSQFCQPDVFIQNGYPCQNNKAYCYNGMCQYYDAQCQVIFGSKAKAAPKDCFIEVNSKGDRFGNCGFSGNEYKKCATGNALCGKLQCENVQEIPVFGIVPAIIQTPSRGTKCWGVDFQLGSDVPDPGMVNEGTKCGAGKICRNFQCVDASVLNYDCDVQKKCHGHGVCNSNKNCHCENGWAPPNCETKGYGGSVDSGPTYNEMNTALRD
# T2: ADAM 8 catalytic domain (mouse) (mouse, UniProt Q05910 196-395, limits assumed)
# T2 construct: domain: catalytic domain; also called ADAM 8 (mouse); ADAM 8 (mouse) Cat
# T2 sequence (looked up): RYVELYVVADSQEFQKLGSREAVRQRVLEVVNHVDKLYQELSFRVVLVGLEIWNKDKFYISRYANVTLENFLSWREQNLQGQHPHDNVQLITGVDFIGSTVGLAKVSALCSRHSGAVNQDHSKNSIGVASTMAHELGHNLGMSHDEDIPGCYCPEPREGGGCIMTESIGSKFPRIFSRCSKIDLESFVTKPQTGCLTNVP
# T3: Human ADAM10 protease containing the catalytic/disintegrin domains (human, UniProt O14672 214-672, limits assumed)
# T3 construct: domain: catalytic/disintegrin domains; Bought; also called ADAM 10 (human) Cat/Dis; ADAM10 catalytic/disintegrin construct
# T3 sequence (looked up): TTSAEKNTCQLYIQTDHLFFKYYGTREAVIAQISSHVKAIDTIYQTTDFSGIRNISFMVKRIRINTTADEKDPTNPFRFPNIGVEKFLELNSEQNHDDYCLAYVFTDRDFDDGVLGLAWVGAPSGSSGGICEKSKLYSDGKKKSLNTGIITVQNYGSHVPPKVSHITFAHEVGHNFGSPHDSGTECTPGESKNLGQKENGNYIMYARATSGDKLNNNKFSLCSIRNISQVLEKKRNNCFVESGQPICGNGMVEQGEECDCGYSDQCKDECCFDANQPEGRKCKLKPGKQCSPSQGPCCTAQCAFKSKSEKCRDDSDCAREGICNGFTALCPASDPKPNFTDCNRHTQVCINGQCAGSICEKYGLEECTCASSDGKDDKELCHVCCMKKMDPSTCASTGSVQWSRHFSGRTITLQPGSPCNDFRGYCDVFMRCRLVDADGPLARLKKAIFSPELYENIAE
# B1: wt ProADAM 10 23-213 (C-terminal His tag) (other)
# chain: NPLNKYIRHYEGLSYNVDSLHQKHQRAKRAVSHEDQFLLLDFHAHGRQFNLRMKRDTSLFSDEFKVETSNKVPDYDTSHIYTGHIYGEEGSFSHGSVIDGRFEGFIKTRGGTFYIEPAERYIKDRILPFHSVIYHEDDINYPHKYGPQGGCADHSVFERMRKYQMTGVEEGARAHPEKHAASSGPELLRKKHHHHHH
# notes: the wild type has Cys there
# B2: wt ProADAM 10 23-213 (N-terminal His tag) (other)
# chain: NPLNKYIRHYEGLSYNVDSLHQKHQRAKRAVSHEDQFLLLDFHAHGRQFNLRMKRDTSLFSDEFKVETSNKVPDYDTSHIYTGHIYGEEGSFSHGSVIDGRFEGFIKTRGGTFYIEPAERYIKDRILPFHSVIYHEDDINYPHKYGPQGGCADHSVFERMRKYQMTGVEEGARAHPEKHAASSGPELLRKK
# notes: Expressed in E. coli, purified on Ni-NTA and Superdex-75; the wild type has Cys there; not shown: N-terminal His tag and leader encoded by the pRSET vector (insert at BamHI/EcoRI)
# How the values were obtained:
# [1] = molecular target: T1, human ADAM 9 catalytic/disintegrin …; assay: enzyme inhibition, fluorescent peptide substrate
# Method: (§1) Inhibition assays with ADAM 9. The fluorescent substrate, Dabcyl-PchaGC(Me)HAK(Fam)-NH₂ (SEQ ID NO 19) (10 μM), in a buffer containing 25 mM Tris, pH 8.0, 0.0006% Brij-35, was used to measure human ADAM 9 catalytic/disintegrin domains activity. The ADAM 9 was provided as a 0.1 μg/μl stock solution, from which 3 μl was added to start the reaction in the absence or presence of ADAM10 prodomain (78-5000 nM). Fluorescence intensities were measured every 10-20 minutes at excitation and emission wavelengths of 485 and 530 nm respectively.
# Calculation of inhibition constants. The amount of activity was calculated by subtracting the ADAM 10 prodomain control from the ADAM 10 prodomain with enzyme. All inhibition assays were performed at room temperature and the data fit to the following equation using Sigma Plot software: […]
# [2] = molecular target: T4, Human TACE protease containing the catalytic/disintegrin domains (human, UniProt P78536 215-671, limits assumed); assay: enzyme inhibition, fluorescent peptide substrate
# T4 construct: domain: catalytic/disintegrin domains; Bought; also called TACE (human) Cat/Dis; TACE catalytic/disintegrin
# T4 sequence (P78536 215-671 limits assumed): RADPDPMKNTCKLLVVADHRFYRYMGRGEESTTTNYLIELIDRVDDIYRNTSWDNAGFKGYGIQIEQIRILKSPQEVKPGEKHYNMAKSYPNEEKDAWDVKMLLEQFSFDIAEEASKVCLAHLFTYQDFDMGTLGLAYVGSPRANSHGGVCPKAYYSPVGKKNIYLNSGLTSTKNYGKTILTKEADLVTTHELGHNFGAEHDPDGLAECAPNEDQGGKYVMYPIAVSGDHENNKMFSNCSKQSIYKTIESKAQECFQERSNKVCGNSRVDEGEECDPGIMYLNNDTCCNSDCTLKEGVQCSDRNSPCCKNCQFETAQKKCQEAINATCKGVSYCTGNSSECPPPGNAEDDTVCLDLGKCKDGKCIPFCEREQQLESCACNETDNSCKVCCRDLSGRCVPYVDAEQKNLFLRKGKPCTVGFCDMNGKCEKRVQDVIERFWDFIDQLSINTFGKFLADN
# Method: (§2) Inhibition assays with TACE and ADAM 10. Activity of TACE catalytic/disintegrin, TACE catalytic, or ADAM10 catalytic/disintegrin constructs was monitored at 3 minute intervals using the fluorescent substrate, Dabcyl-LAQAHomoPheRSC(Fluorescein)-NH₂ (SEQ ID NO 17) with excitation 485 nm and emission 530 nm. The substrate was diluted from a 10 mM stock in DMSO to 10 μM in assay buffer containing 20 mM Tris, pH 8.0, and 0.0006% Brij-35. Reactions were run in a 96-well black-coated plate with either ADAM10 prodomain (10 nM-1.0 μM) alone or with enzyme. Concentrations of enzyme ranged from 0.5-2.0 nM for TACE and 5-15 nM for ADAM10. For assays with TACE and ADAM8 prodomain, the range of concentrations varied from 1-4.7 μM.
# (§3) Inhibition assays with MMPs. The fluorescent substrate Dabcyl-[…](Fluorescein)-NH₂ (SEQ ID NO 18) (10 μM) in assay buffer containing 50 mM Tris, pH 7.5, 150 mM NaCl, 2 mM CaCl₂, 5 μM ZnSO₄, and 0.01% Brij-35 was used to monitor enzyme activities. MMPs 1, 2, 3, 9, 13, and 14 (0.1-20 nM) were incubated with substrate in the absence or presence of prodomain (3-30 μM). Fluorescence intensities were measured every 3-5 minutes at an emission wavelength of 530 nm (excitation 485 nm).
# as §1
# [3] = molecular target: T5, TACE catalytic domain (human) (human, UniProt P78536 215-477, limits assumed); assay: enzyme inhibition, fluorescent peptide substrate
# T5 construct: domain: catalytic domain; also called TACE (human) Cat
# T5 sequence (P78536 215-477 limits assumed): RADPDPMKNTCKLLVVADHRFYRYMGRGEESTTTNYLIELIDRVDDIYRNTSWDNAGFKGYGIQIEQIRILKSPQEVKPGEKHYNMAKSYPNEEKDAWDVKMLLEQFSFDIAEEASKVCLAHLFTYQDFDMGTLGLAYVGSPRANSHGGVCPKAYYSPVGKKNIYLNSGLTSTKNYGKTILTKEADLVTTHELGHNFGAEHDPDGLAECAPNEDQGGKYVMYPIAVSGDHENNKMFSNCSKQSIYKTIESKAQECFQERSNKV
# Method: as §2, §3, §1
# [4] = molecular target: T1, human ADAM 9 catalytic/disintegrin …; assay: enzyme inhibition, fluorescent peptide substrate; remark: listed apart in the source
# Method: as §2, §3, §1
# [5] = molecular target: T2, ADAM 8 catalytic domain (mouse); assay: enzyme inhibition, fluorescamine assay with Dnp peptide substrate
# Method: Inhibition assays with ADAM 8. The ADAM 8 catalytic domain was expressed and purified from E. coli as described (22). A substrate based on the L-selectin cleavage site, Dnp-INorIeu[…]-NH₂ (SEQ ID NO 20), was used to monitor enzyme activity with a fluorescamine assay. From a concentrated 50 mM solution in DMSO, the substrate was diluted 1:500 in 25 mM HEPES, pH 8.0, 0.0006% Brij-35. To 100 μl of diluted substrate was added either 5 μl of buffer (Tris, pH 8.0, 150 mM KCl) or 5 μl of ADAM10 prodomain (1-10 μM). Zero time points were taken by diluting 12.5 μl of the reaction mixture into 100 μl of fluorescamine buffer (50 mM HEPES, pH 8.0, 0.2 M NaCl, 0.01 M CaCl₂, 0.01% Brij-35) in a 96-well black-coated plate. Before measuring fluorescence, 3 μl of a 1% solution of fluorescamine in DMSO was added to each well. The plate was allowed to incubate for 10 min in the dark before measuring fluorescence (excitation wavelength at 390 nm, emission wavelength at 485 nm). For assays with TACE and ADAM8 prodomains, a fluorescent substrate was used to monitor activity at concentrations of prodomains ranging from 1-4.7 μM.
# Calculation of inhibition constants. The amount of activity was calculated by subtracting the ADAM 10 prodomain control from the ADAM 10 prodomain with enzyme. […]
# [6] = molecular target: T3, Human ADAM10 protease containing the …; assay: enzyme inhibition, fluorescent peptide substrate; fit to a pure competitive model
# Method: ADAM 10 protein was diluted 1:100 in buffer 25 mM Tris pH 8, 0.0006% Brij-35 and then 10 μl was added to 88 μl of substrate (20-100 μM), Dabcyl-LAQAHomoPheRSC(Fluorescein)-NH₂ with excitation 485 nm and emission 530 nm. Prodomain, 2 μl, in 25 mM Tris, pH 8, 100 mM NaCl, 10% glycerol, 0.1% mercaptoethanol, and 50 μM CaCl₂ was added to substrate before addition of enzyme. The final concentration of prodomain ranged from 17-170 nM. The fluorescence vs time was plotted, and slopes were taken from straight line fits of initial velocities. The reciprocal of the velocities was plotted vs the reciprocal of substrate squared since the normal Lineweaver Burke plot gave curved lines. The initial velocities vs substrate concentrations were fit as a family of curves to several allosteric models. The data fit best to a pure competitive model as described in the following equation where binding of inhibitor prevents substrate from binding to both sites: […]
# [7] = molecular target: T6, MMP 2; assay: enzyme inhibition, fluorescent peptide substrate
# T6 construct: also called matrix metalloproteinase 2
# T6 sequence (P08253 110-660): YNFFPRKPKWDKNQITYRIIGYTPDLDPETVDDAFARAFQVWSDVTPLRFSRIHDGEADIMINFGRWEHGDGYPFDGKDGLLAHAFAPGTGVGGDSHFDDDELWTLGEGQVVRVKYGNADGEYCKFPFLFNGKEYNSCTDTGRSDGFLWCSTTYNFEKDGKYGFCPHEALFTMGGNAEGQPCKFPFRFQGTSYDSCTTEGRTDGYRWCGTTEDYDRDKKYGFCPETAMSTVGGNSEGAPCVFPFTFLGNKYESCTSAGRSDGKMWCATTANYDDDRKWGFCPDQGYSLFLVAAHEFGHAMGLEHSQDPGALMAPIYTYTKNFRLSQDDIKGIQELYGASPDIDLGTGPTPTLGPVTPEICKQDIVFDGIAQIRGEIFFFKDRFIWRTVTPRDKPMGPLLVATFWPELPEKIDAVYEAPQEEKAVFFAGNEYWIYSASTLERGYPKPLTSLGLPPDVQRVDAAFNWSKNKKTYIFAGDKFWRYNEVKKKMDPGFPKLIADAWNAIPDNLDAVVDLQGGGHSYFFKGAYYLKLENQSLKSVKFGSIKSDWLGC
# Method: as §2, §3, §1
# [8] = molecular target: T7, MMP 3; assay: enzyme inhibition, fluorescent peptide substrate
# T7 construct: also called matrix metalloproteinase 3
# T7 sequence (P08254 100-477): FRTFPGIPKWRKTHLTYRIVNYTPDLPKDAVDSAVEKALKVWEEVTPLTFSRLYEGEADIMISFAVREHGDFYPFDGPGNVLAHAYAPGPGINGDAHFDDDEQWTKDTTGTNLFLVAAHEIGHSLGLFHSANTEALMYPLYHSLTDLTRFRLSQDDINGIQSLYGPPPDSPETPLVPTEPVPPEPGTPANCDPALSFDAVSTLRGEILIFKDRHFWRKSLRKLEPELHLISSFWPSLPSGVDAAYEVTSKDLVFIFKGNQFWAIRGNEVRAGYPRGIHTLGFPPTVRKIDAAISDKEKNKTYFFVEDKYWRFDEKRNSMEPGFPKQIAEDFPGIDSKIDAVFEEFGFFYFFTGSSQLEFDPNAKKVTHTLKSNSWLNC
# Method: as §2, §3, §1
# [9] = molecular target: T8, MMP 9; assay: enzyme inhibition, fluorescent peptide substrate
# T8 construct: also called matrix metalloproteinase 9
# T8 sequence (P14780 107-707): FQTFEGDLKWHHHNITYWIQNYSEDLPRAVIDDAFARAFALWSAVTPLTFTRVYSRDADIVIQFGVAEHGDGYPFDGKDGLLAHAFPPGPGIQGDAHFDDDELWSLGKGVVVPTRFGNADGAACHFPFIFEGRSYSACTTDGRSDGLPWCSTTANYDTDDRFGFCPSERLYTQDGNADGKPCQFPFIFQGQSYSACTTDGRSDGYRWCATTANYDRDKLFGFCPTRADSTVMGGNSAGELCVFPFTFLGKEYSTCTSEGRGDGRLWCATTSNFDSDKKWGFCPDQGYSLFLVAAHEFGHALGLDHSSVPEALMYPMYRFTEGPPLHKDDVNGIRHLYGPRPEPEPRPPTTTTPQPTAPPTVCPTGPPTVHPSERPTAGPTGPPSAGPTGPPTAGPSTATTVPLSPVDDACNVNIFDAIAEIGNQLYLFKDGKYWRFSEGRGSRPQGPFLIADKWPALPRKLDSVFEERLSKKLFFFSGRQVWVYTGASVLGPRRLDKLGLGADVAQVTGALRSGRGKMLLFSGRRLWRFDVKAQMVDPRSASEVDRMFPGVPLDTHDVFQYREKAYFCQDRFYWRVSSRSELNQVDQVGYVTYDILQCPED
# Method: as §2, §3, §1
# [10] = molecular target: T9, MMP 13; assay: enzyme inhibition, fluorescent peptide substrate
# T9 construct: also called matrix metalloproteinase 13
# Method: as §2, §3, §1
# [11] = molecular target: T10, MMP 14; assay: enzyme inhibition, fluorescent peptide substrate
# T10 construct: also called matrix metalloproteinase 14
# Method: as §2, §3, §1
# [12] = molecular target: T3, Human ADAM10 protease containing the …; assay: enzyme inhibition, fluorescent peptide substrate
# Method: as §2, §3, §1
# [13] = molecular target: T11, MMP 1; assay: enzyme inhibition, fluorescent peptide substrate
# T11 construct: also called matrix metalloproteinase 1
# T11 sequence (P03956 100-469): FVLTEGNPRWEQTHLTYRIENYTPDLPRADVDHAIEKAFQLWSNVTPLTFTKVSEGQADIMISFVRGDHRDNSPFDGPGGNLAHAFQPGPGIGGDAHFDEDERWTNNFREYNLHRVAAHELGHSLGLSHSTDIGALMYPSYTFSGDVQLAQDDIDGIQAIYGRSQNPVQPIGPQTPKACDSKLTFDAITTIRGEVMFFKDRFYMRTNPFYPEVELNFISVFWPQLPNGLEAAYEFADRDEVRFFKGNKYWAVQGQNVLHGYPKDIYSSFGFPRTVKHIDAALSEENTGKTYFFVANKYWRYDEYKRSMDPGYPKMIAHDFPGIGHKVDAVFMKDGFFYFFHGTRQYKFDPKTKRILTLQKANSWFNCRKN
# Method: as §2, §3, §1
Binder,Ki [1] [nM],Ki [2] [nM],Ki [3] [nM],Ki [4] [nM],Ki [5] [nM],Ki [6] [nM],Ki [7] [nM],Ki [8] [nM],Ki [9] [nM],Ki [10] [nM],Ki [11] [nM],Ki [12] [nM],Ki [13] [nM]
B1,~1000,> 10000,> 11000,> 1000,> 10000,48,–,–,–,–,–,–,–
B2,–,> 3000,> 11000,–,–,–,> 2000,> 2000,> 2000,> 2000,> 2000,75,> 2000

# Reference: patent US20100081620A1 (BIOZYME, published 2010)
